Data set [1] deals with T1, FumC (class II fumarase) (Methylotuvimicrobium alcaliphilum, UniProt G4SWR5). Nature of the data set: coupled assay with NADP-dependent malic enzyme at […] nm. The following applies: 1 mM fumarate, 50 mM Tris-HCl pH 8.0, coupling enzyme present. On the set-up: full length (gene 1404 bp), His6-tagged, pET22b(+), E. coli BL21(DE3); homotetramer (184 kDa). The class given is biochemical.

Data set [2] has as its target T2, FumI (class I fumarase) (Methylotuvimicrobium alcaliphilum, UniProt G4T1T1).
T2 construct: gene fumA; full length, 507 residues, His6-tagged, pET22b(+), E. coli BL21(DE3); homodimer (130 kDa); aerobically purified, stabilised with iron-sulfur mixture; [4Fe-4S]
The data set is described as above. The class given is biochemical. To be noted: activator; 1 mM succinate, 1 mM fumarate, 50 mM Tris-HCl pH 8.5, 5 mM MgCl2; coupling enzyme present.

Data set [3] deals with T1, FumC (class II fumarase). The following applies: read-out: Class II fumarase (FumС) / Km(S0.5*); 50 mM Tris-HCl pH 8.0; text b40 prints 0.10 ± 0.001 mM.
The target in data set [4] is T2, FumI (class I fumarase). Put plainly: spectrophotometric hydration assay at […] nm, Hill fit. The class given is biochemical. To be noted: 50 mM Tris-HCl pH 8.5, optimal conditions, aerobic; Hill n = 1.4 ± 0.2; read-out: Class I fumarase / S0.5.
Substrate in data set [5]: O=C(O)C[C@H](O)C(=O)O
Put plainly: purified protein.

Substrate in data set [6]: C/C(=C\C(=O)O)C(=O)O
Put plainly: purified protein. The following applies: 50 mM Tris-HCl pH 8.5, aerobic, Hill n = 1.4 ± 0.1, error in Table 1 printed ± 0.2. The class given is biochemical, Methylotuvimicrobium alcaliphilum.

The mark [7] stands for this setting: 50 mM Tris-HCl pH 8.5, Hill n = 2.1 ± 0.4.
Where [8] appears, read: 50 mM Tris-HCl pH 8.5, aerobic, Hill n = 1.7 ± 0.1, error in text b33 ± 0.03.

As to `C=C(OP(=O)(O)O)C(=O)O` [phosphoenolpyruvate], the “% reduction of activity at 1 mM” value on FumC (class II fumarase) [1] (1 mM phosphoenolpyruvate) is recorded as 30%. With `O=C(O)CCC(=O)O` [succinate], the “fold activity at 1 mM” value on FumI (class I fumarase) [2] is ~ 1.5 fold. `O=C(O)/C=C/C(=O)O` [fumarate]: the Km on FumC (class II fumarase) [3] was determined as 110 ± 4 µM; on FumI (class I fumarase) [4] it was 280 ± 40 µM. Regarding `O=C(O)CC(O)(CC(=O)O)C(=O)O` [citrate], on FumC (class II fumarase) [1] (1 mM citrate), the “% reduction of activity at 1 mM” value was 50%.

B1: FumC (class II fumarase) (Methylotuvimicrobium alcaliphilum 20Z) (protein)
chain: MTIGSSAGRIESDALGSIEVPADKYWGAQTQRSLHYFAIGDERLPRPLIRALGIVKRCAALSNIAQNKLDEKLGRAIVDAAQEVIDGALDEHFPLVIWQTGSGTQSNMNANEVIANRVNERLGGALGSKSPVHPNDHCNLSQSSNDVFPSAMHIAAVEQLQCLLIPSLQRLQKTLSDKSQAWADIIKIGRTHLQDATPLSLGQEFSGYATQVQLSIERLQDSLKRLYPLAQGGTAVGTGLNSSQGFAELFADEVAKFTGHPFTSAANKFEAMAAHDALVELSGVLNCSAVSLNKIANDIRLLSSGPRSGLGELILPANEPGSSIMPGKINPTQCEALTMVCTQVIGNHTTVTLAGAQGHLELNTFKPVMIYNVLQSIRLLGDAAHSFTEHCVAGIQPNAERIAELMEQSLMLVTALVPQIGYDKAAQIAKTAMQNGTTLREEAIAVGLVSAEQFDAIVRPERMIMPK
Consider B1, for which, in “purified protein [5]” (setting [7]), the K0.5 turned out to be 0.14 ± 0.01 mM and the kcat/Km came to 1000 M⁻¹ s⁻¹.

B2: FumI (class I fumarase) (Methylotuvimicrobium alcaliphilum 20Z) (protein)
chain: MTLIRQEDFIQSIFESLQYISYYHPQDFIEAMYRAYQNEQSSAAKDAIAQILINSRMCAEGHRPICQDTGIVVVFLKIGMNVQWDAQISITDMVNEGVRRAFMHPDNILRASILSDPAGKRINTRDNTPAVVYMEVVPGDRVEVEIAAKGGGSEAKSKFAMLNPSDSIVDWVMQTVPTMGAGWCPPGILGIGIGGTAEKAMLLAKQACMESVDIHELIARGPVNALEELRLELYEKVNALGIGAQGMGGLTTVLDIKIKDYPAHAANKPVAMIPNCAATRHIHFELDGSGPAELPVPCLEDWPKIAWEGGNSAKRVNLDTVTKDEIATWRPGETLLLSGTLLTGRDAAHKRIVEMLERGEALPEGVDFTNKFIYYVGPVDPVRDEVVGPAGPTTATRMDKFTEAMLAQTGLIGMIGKAERGPVAIEAIKKHRAVYLMAVGGAAYLVSKAIRKARVVAFEDLGMEAVHEFVIEDMPVTVAVDVDGESIHKSGPKQWQAKIGKIPVVSK
notes: full length, 507 residues, His6-tagged, pET22b(+), E. coli BL21(DE3); homodimer (130 kDa); aerobically purified, stabilised with iron-sulfur mixture; [4Fe-4S]
As for B2, in “purified protein [5]” (setting [8]), the K0.5 is recorded as 0.55 ± 0.02 mM and the kcat/Km was 180 M⁻¹ s⁻¹. In the data set “purified protein [6]”, the K0.5 worked out at 0.24 ± 0.02 mM and the kcat/Km came out at 750 M⁻¹ s⁻¹.

By kcat/Km is commonly meant the turnover number divided by the Michaelis constant.

Values taken from publication PMC10602362, “Interchangeability of class I and II fumarases in an obligate methanotroph Methylotuvimicrobium alcaliphilum 20Z” (PLOS ONE, 2023).
